Results taken from the supplement of paper PMC9170038.

Tested on: MS2 coat protein
Test: apparent KD of MS2 coat protein; designed switch direction (-1 OFF switch, 1 ON switch): 1; higher = weaker reporter binding
Procedure, shortened: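 RNA switches sharing common flanks were transcribed by stalled E. coli RNA polymerase on Illumina chips. A doubling series of SNAP-549-labelled MS2 coat protein, from 0.7 or 1.5 nM to 3 µM, was applied in Tris-HCl pH 7.5 buffer with KCl, MgCl2, BSA, DTT, tRNA and Tween-20. Each step lasted 0.8–1.5 h at the bottom of the series and 10–20 min at the top. Normalised cluster fluorescence was curve-fitted, giving apparent KD as the per-design median over clusters.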

[1] = Eterna round: R95, input ligand: FMN 200 uM
[2] = Eterna round: R95, input ligand: microRNA oligo, concentration not stated
[3] = Eterna round: R95, input ligand: none
[4] = input ligand: microRNA oligo, concentration not stated

Row | Sequence | apparent KD of MS2 coat protein [1] [nM] | apparent KD of MS2 coat protein [2] [nM] | apparent KD of MS2 coat protein [3] [nM] | apparent KD of MS2 coat protein (input ligand: FMN 200 uM) [nM] | apparent KD of MS2 coat protein [4] [nM] | apparent KD of MS2 coat protein (input ligand: none) [nM]
1 | UACAAUCUAUCUGAGGAUAUCAUGUAUUAAACAUGAGGAUCACCCAUGUGCAGGAAAACUGCAUAUGAGAAGGCAGAUAGAUUGU [salish99_ss2_r3_064] (puzzle: Same State 2) | 428 | 41.9 | 168 |  |  | 
2 | UACAUACGCGGAGGAUAUGGGCGAGGCGCAGAGGUCUGCGUCAAAACAUGAGGAUCACCCAUGUCCCAGAAGGCCGCGUAAACU [Enisen] (Eterna round: R96, puzzle: Same State NG 2) |  |  |  | 15.7 | 51.3 | 73.4
3 | UACCAACAUAUAGAACAAGCGUGCUCGUCACAUGAGGAUCACCCAUGUCUAAGCGCUGAACCUGCAUCCUCAGCGCC [Oniste] (puzzle: Sensor for hsa-mir-208a) | 78.5 | 26.5 | 85.9 |  |  | 
4 | UAGACAAGCUUUAUGUUCUUCCUUUUCCUACAUGAGGAUCACCCAUGUAGUCUGUCGAUUGUGAGUGUAGUUGAGAU [JR_SHM208A_Sub025] (puzzle: Sensor for hsa-mir-208a) | 18.7 | 16 | 18.7 |  |  | 
5 | UAGAGAGGAAGCGAGGAUAUCGUGGGAGGGACAUGAGGAUCACCCAUGUAUGAUGUUGAGAGGAACGAGAAGGCGCAGGAAAGUA [JR_SS2_Sub077] (puzzle: Same State 2) | 151 | 137 | 349 |  |  | 
6 | UAGAGAGGAAGCGAGGAUAUCGUGUUAGGUACAUGAGGAUCACCCAUGUUUUAGGUAGAGGUAGGCGAGAAGGCGCAGGAGAGGA [JR_SS2_Sub091] (puzzle: Same State 2) | 24.9 | 29.2 | 24.4 |  |  | 
7 | UAGGAACAUGAGGAUCACCCAUGUACCUCAUAUGGAGAAACACAGGAUAUACUUAGCGAAAGAGAGUAGAAGGGUGAAGAGAGG [Default title] (Eterna round: R96, puzzle: Same State NG 3) |  |  |  | 19.4 | 30.8 | 32.6
8 | UAGGAACAUGAGGAUCACCCAUGUACCUCAUAUGGAGAAACACAGGAUAUGCUGAGGGAAACACAGCAGAAGGGUGAAGAGAGG [Default title] (Eterna round: R96, puzzle: Same State NG 3) |  |  |  | 22.7 | 27.1 | 32.8
9 | UAGGAGAGUAGAACAUGAGGAUCACCCAUGUAACCUCAUGUAUAGGAUAUGUUAAGAGUAGUAGAACAGAAGGAUAAGUAGGAU [Default title] (Eterna round: R96, puzzle: Same State NG 3) |  |  |  | 694 | 494 | 655
10 | UAGUACAAGCUUUUUGCCCGUCUUAUUUAACAUGAGGAUCACCCAUGUAAGGUGAAAGUUAGAGAGUGGAGGUUGAA [JR_SHM208A_Sub049] (puzzle: Sensor for hsa-mir-208a) | 205 | 227 | 249 |  |  | 
11 | UAGUACAUGCUUUUUGUCCGUCUUAGAUAACAUGAGGAUCACCCAUGUAAGGUGAAAGUUAUAUAGUUUAGGAAUAU [JR_SHM208A_Sub057] (puzzle: Sensor for hsa-mir-208a) | 136 | 323 | 178 |  |  | 
12 | UAGUACAUGCUUUUUGUCUGUCUUAGAUCACAUGAGGAUCACCCAUGUUUGGUGAAAGUUAUAUAGUUUAUGACUAU [JR_SHM208A_Sub059] (puzzle: Sensor for hsa-mir-208a) | 114 | 96.8 | 162 |  |  | 
13 | UAGUGAUUGCAAGGAUAUGCUAGUUUUUAUUUGUGUUUGAUAACAAACAUGAGGAUCACCCAUGUGCAGAAGGUGCAAGAUAUG [JR_SSNG2_Sub078] (Eterna round: R96, puzzle: Same State NG 2) |  |  |  | 193 | 361 | 647
14 | UAGUGAUUGCAAGGAUAUGCUUGUGUUUUAUUUUUUUUAAUAUCUAACAUGAGGAUCACCCAUGUGCAGAAGGUGCUUGAUUUG [JR_SSNG2_Sub076] (Eterna round: R96, puzzle: Same State NG 2) |  |  |  |  | 46.5 | 
15 | UAGUGCAUUAGAGGAUAUUCUUACGGAAACGGUAAGACAUGAGGAUCACCCAUGUUGUCACAUGGGAAGAAGGCUGAUGUGCUA [Omei SS(NG)2 Bv5] (Eterna round: R96, puzzle: Same State NG 2) |  |  |  | 82.6 | 104 | 510
16 | UAUGAACAUGAGGAUCACCCAUGUGGAAAAGACACAGGAUAUCAUCCCGGACGUGCGAGAUGAGAAGGGUGAUGGU [Edrive] (puzzle: Same State 1) | 267 | 205 | 367 |  |  | 

Row | Sequence | apparent KD of MS2 coat protein [1] [nM] | apparent KD of MS2 coat protein [2] [nM] | apparent KD of MS2 coat protein [3] [nM] | apparent KD of MS2 coat protein (input ligand: FMN 200 uM) [nM] | apparent KD of MS2 coat protein [4] [nM] | apparent KD of MS2 coat protein (input ligand: none) [nM]
17 | UAUGAACAUGAGGAUCACCCAUGUGGUAAGAUCACAGGAUAUCACCUCGGACGUGCGAUGUGAGAAGGGUGAUGGU [Same State 1 - Mod of Vinnie Anrelari v.2] (puzzle: Same State 1) |  | 419 |  |  |  | 
18 | UAUGAAUUGCAAGGAUAUUGAUAACAUGAGGAUCACCCAUGUAAUUGAUCGAGUUAGAUCAGUUACAAGAAGGUGCUAUUGUUU [JR_SSNG2_Sub037] (Eterna round: R96, puzzle: Same State NG 2) |  |  |  | 1810 | 33.2 | 70
19 | UAUGACUUACAAGGAUAUUAAUAACAUGAGGAUCACCCAUGUGGCUGUGUGUGUUAGAUAAGCUAUAAGAAGGUGUGUGUGUUU [JR_SSNG2_Sub095] (Eterna round: R96, puzzle: Same State NG 2) |  |  |  | 66.2 | 244 | 223
20 | UAUGAUGCCGUAGGAUAUCUAGGAUAUGGACGAGGAUCACCCGAGCAGCAUCAGCGCACCAGAGGAGAGAAGGACGCUUUGGAA [pwkr ssNG2 2F5 2FMN.22] (Eterna round: R96, puzzle: Same State NG 2) |  |  |  | 477 | 658 | 486
21 | UAUUAAUCUGUAGGAUAUGUAGGAUAUGGACGAGGAUCACCCGAGCAGCAUCAGCGCACCAGAGGACAGAAGGACGGCCGGGUG [pwkr ssNG2 2F5 2FMN.24] (Eterna round: R96, puzzle: Same State NG 2) |  |  |  | 1670 | 411 | 177
22 | UAUUUAAUCAUAGGAUAUAGUGUGUAAUUUGGACUAGAAGGAUGAAACAUGAGGAUCACCCAUGUGGUAAAUGGGAUACAUUCC [JR_SSNG1_Sub100] (Eterna round: R96, puzzle: Same State NG 1) |  |  |  |  | 59.8 | 
23 | UCAAGCGAAAGGCUCGUCUUAUGCAAGAAACAUGAGGAUCACCCAUGUGAGGGACGAUUGAGUUAGAUGGAAUGGAA [JR_SHM208A_Sub031] (puzzle: Sensor for hsa-mir-208a) | 24.7 | 66.6 | 25 |  |  | 
24 | UCAAUCAUGUAAGGAUAUGCAGCCGAAACGGCUGCAGAAGGUACUAUAAUUACAUGAGGAUCACCCAUGUUAUAAAAUUUAUAU [Mat - Same State NG 1 - JL mod - D67] (Eterna round: R96, puzzle: Same State NG 1) |  |  |  |  | 85 | 
25 | UCGAGCGUACUUGCAGACAUGAGGAUCACCCAUGUAAAUGGGAAGGAUAUGGUACCGUUUCGGUACCAGAAGGUCCUAAGUGAU [salish99_SSNG3_r04_302] (Eterna round: R96, puzzle: Same State NG 3) |  |  |  | 574 | 465 | 1200
26 | UCGGGCGUACUUGCUGACAUGAGGAUCACCCAUGUGAUUGGGAAGGAUAUGGUUCCGUUUCGGUUCCAGAAGGUCCUGGGUGCU [salish99_SSNG3_r04_313] (Eterna round: R96, puzzle: Same State NG 3) |  |  |  | 482 | 459 | 370
27 | UCGGGCGUACUUGCUGACAUGAGGAUCACCCAUGUGAUUGGGCAGGAUAUGGUUCCGUUUCGGUUCCAGAAGGUCCUCGGUGCU [salish99_SSNG3_r04_315] (Eterna round: R96, puzzle: Same State NG 3) |  |  |  | 593 | 230 | 347
28 | UCGGGCGUACUUGCUGACAUGAGGAUCACCCAUGUGUUUGGGAAGGAUAUGGUUCCGUUUCGGUUCCAGAAGGUCCUGGGUGCU [salish99_SSNG3_r04_314] (Eterna round: R96, puzzle: Same State NG 3) |  |  |  | 337 | 254 | 246
29 | UCUAUUGUGGUAGGAUAUCUAGGAUAUGGGAAGAGCUAAGCUUGGAAGUCACUUCACCCAGAAGGAGAGAAGGACCAGAGACUU [pwkr ssNG2 2FMN + F9.7] (Eterna round: R96, puzzle: Same State NG 2) |  |  |  | 1230 | 778 | 475
30 | UCUGCAAGAACAGGAUAUGGGUUCAGAGCGCGAGUGCGCUUUGACACAUGAGGAUCACCCAUGUCCCAGAAGGGUUCAAGCGGC [Cexezadi] (Eterna round: R96, puzzle: Same State NG 2) |  |  |  | 30 | 321 | 385
31 | UCUUGGUUUUUGCUCGUUUUUUGUGUUGAACAUGAGGAUCACCCAUGUAUUGUACAAUCCAGUUUGAUAAUGGUCCG [JR_SHM208A_Sub045] (puzzle: Sensor for hsa-mir-208a) | 140 | 112 | 167 |  |  | 
